What all share (test): EMSA
In one data set the target is T1, FD-C (Arabidopsis thaliana, UniProt Q84JK2 203-285).
T1 sequence: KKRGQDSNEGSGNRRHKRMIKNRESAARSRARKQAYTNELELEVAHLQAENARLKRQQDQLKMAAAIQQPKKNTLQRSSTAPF

Data set [1] addresses T2, FD full-length (Arabidopsis thaliana, UniProt Q84JK2 1-285).
T2 sequence: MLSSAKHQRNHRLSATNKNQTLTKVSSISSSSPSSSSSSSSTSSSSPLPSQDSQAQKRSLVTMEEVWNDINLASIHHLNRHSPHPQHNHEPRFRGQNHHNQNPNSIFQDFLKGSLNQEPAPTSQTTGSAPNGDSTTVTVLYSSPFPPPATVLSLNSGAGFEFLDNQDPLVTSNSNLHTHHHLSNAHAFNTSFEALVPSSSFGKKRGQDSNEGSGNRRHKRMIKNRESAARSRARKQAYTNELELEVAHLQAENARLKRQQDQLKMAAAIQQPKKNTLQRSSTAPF

Data set [2] concerns the target T3, FD-C_T282E;14-3-3nu (GRF7) (Arabidopsis thaliana;Arabidopsis …, UniProt Q84JK2;Q96300 203-285;1-265, T282E|).
T3 sequence 1: T1 sequence with T80E
T3 sequence 2: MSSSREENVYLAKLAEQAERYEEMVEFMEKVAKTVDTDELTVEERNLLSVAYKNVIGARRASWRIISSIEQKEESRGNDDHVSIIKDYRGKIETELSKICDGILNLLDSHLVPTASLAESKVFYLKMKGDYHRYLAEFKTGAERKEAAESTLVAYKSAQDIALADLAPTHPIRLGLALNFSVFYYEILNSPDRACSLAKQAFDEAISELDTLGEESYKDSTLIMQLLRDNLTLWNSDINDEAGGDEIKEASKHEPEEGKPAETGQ

The target in data set [3] is FD-C_T282E;14-3-3nu (GRF7);TFL1 (Arabidopsis thaliana;Arabidopsis …, UniProt Q84JK2;Q96300;P93003 203-285;1-265;1-177, T282E||).
Data set [4] deals with T4, FD-C_T282E;14-3-3nu (GRF7);FT (Arabidopsis thaliana;Arabidopsis …, UniProt Q84JK2;Q96300;Q9SXZ2 203-285;1-265;1-175, T282E||).
Another data set addresses T5, FD-C_T282E (Arabidopsis thaliana, UniProt Q84JK2 203-285, T282E).
T5 sequence: T1 sequence with T80E

Data set [5] deals with T4, FD-C_T282E;14-3-3nu (GRF7);FT. The source holds these as a separate data set.
For data set [6], the target named is FD-C;14-3-3nu (GRF7);TFL1 (Arabidopsis thaliana;Arabidopsis …, UniProt Q84JK2;Q96300;P93003 203-285;1-265;1-177, ||).
The next data set deals with T6, FD T282E full-length (Arabidopsis thaliana, UniProt Q84JK2 1-285, T282E).
T6 sequence: T2 sequence with T282E

In data set [7] the target is T2, FD full-length. This is another data set of the same source.

The source of these data is paper doi:10.1101/483925.

Changes are numbered by the printed parent chain. Like-named read-outs stand apart in the source and are kept apart here.

Sequence of FD-C_T282E;14-3-3nu (GRF7);TFL1 (P93003 whole entry, stated change not applied, one chain of several): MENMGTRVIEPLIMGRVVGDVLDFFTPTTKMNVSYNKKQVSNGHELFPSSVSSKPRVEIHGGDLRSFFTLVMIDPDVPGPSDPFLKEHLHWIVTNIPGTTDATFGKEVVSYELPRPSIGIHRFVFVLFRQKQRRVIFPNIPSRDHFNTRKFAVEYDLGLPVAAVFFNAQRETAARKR
T4 sequence (Q9SXZ2 whole entry, stated change not applied, one chain of several): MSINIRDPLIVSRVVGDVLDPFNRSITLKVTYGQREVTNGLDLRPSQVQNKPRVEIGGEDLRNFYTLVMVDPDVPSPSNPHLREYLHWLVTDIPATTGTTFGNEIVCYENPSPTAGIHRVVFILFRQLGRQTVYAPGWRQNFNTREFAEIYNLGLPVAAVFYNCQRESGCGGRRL
Sequence of FD-C;14-3-3nu (GRF7);TFL1 (P93003 whole entry, one chain of several): as the sequence (P93003 whole entry, stated change not applied, one chain of several) above

B1: SEP3 G-box CG to TA (CATATG) (dsDNA)
DNA 1: CGAGATGTCGACATATGTCCAAACTCAT
DNA 2: ATGAGTTTGGACATATGTCGACATCTCG
For B1, the binding result with FD-C and in the data set with FD full-length [1] was “no binding” throughout.

B2: AP1 promoter site 2 (dsDNA)
DNA 1: TACCAATGAGAAGTCGACACGCAAATCCTA
DNA 2: TAGGATTTGCGTGTCGACTTCTCATTGGTA
Take B2: the binding result in [2], in data set [3] and in [4] was “binds” each time.

B3: SEP3 G-box CG to GC (CAGCTG) (dsDNA)
DNA 1: CGAGATGTCGACAGCTGTCCAAACTCAT
DNA 2: ATGAGTTTGGACAGCTGTCGACATCTCG
Take B3: the binding result in the data set with FD-C and in the data set with FD full-length [1] was “binds” throughout.

B4: SEP3 G-box to C-box (GACGTC) (dsDNA)
DNA 1: CGAGATGTCGAGACGTCTCCAAACTCAT
DNA 2: ATGAGTTTGGAGACGTCTCGACATCTCG
With B4, the binding result with FD-C and in the data set with FD full-length [1] was “no binding” throughout.

B5: SEP3 promoter G-box probe (dsDNA)
DNA 1: CGAGATGTCGACACGTGTCCAAACTCAT
DNA 2: ATGAGTTTGGACACGTGTCGACATCTCG
As for B5, the binding result (with FD-C_T282E; in [2]; in [5]; in [6]; in data set [3]; in the data set with FD T282E full-length) was “binds” in each case. Besides, in the data set with FD full-length [7], the binding result is recorded as “binds”.
